Source: IntAct's records for PubMed 25006247

B1: Pyrin (Homo sapiens), O15553 (parent)
chain: MAKTPSDHLLSTLEELVPYDFEKFKFKLQNTSVQKEHSRIPRSQIQRARPVKMATLLVTYYGEEYAVQLTLQVLRAINQRLLAEELHRAAIQEYSTQENGTDDSAASSSLGENKPRSLKTPDHPEGNEGNGPRPYGGGAASLRCSQPEAGRGLSRKPLSKRREKASEGLDAQGKPRTRSPALPGGRSPGPCRALEGGQAEVRLRRNASSAGRLQGLAGGAPGQKECRPFEVYLPSGKMRPRSLEVTISTGEKAPANPEILLTLEEKTAANLDSATEPRARPTPDGGASADLKEGPGNPEHSVTGRPPDTAASPRCHAQEGDPVDGTCVRDSCSFPEAVSGHPQASGSRSPGCPRCQDSHERKSPGSLSPQPLPQCKRHLKQVQLLFCEDHDEPICLICSLSQEHQGHRVRPIEEVALEHKKKIQKQLEHLKKLRKSGEEQRSYGEEKAVSFLKQTEALKQRVQRKLEQVYYFLEQQEHFFVASLEDVGQMVGQIRKAYDTRVSQDIALLDALIGELEAKECQSEWELLQDIGDILHRAKTVPVPEKWTTPQEIKQKIQLLHQKSEFVEKSTKYFSETLRSEMEMFNVPELIGAQAHAVNVILDAETAYPNLIFSDDLKSVRLGNKWERLPDGPQRFDSCIIVLGSPSFLSGRRYWEVEVGDKTAWILGACKTSISRKGNMTLSPENGYWVVIMMKENEYQASSVPPTRLLIKEPPKRVGIFVDYRVGSISFYNVTARSHIYTFASCSFSGPLQPIFSPGTRDGGKNTAPLTICPVGGQGPD

Variants of: B1
Conditions: with asc_human PYCARD

Variant | effect of a mutation on the interaction
K3A | with no effect
L10A | decreasing interaction strength
E14A | decreasing interaction strength
E22A | increasing interaction strength
K25A | disrupting interaction strength
Q29A | with no effect
K35A | with no effect
H37A | with no effect
R42A | decreasing interaction strength
R42W | decreasing interaction strength
Q46A | with no effect
R49A | with no effect
V58A | increasing interaction strength
E63A | increasing interaction strength
L71A | decreasing interaction strength
R75A | decreasing interaction strength
R80A | decreasing interaction strength
E84A | with no effect
R88A | with no effect
A89T | with no effect

Variants of: B1
Conditions: with asc_human PYCARD
Remark: another data set of the same source

Variant | effect of a mutation on the interaction
R42W | with no effect
